From publication PMC5389570

Target: RPA heterotrimer (RPA70/RPA32/RPA14) (Homo sapiens) (UniProt P27694+P15927+P35244)
Test: EMSA

Chain of RPA heterotrimer (RPA70/RPA32/RPA14) (Homo sapiens) (P27694 whole entry, chain 1 of 3): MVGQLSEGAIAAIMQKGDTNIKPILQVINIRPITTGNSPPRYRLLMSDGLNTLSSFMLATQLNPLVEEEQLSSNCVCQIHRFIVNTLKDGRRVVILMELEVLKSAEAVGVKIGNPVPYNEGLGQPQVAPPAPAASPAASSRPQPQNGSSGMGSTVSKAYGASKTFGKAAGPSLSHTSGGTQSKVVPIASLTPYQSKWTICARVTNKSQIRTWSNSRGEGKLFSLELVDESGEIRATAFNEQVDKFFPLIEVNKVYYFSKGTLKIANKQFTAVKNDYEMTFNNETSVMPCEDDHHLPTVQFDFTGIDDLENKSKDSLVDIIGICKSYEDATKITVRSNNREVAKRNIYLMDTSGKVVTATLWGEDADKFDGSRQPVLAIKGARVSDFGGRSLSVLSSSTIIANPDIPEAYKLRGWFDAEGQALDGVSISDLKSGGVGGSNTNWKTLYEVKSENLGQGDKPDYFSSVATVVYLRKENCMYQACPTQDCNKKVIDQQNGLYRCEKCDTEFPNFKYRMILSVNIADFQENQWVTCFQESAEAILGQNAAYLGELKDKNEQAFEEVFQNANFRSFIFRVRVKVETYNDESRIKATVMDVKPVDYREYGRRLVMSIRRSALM
Chain of RPA heterotrimer (RPA70/RPA32/RPA14) (Homo sapiens) (P15927 whole entry, chain 2 of 3): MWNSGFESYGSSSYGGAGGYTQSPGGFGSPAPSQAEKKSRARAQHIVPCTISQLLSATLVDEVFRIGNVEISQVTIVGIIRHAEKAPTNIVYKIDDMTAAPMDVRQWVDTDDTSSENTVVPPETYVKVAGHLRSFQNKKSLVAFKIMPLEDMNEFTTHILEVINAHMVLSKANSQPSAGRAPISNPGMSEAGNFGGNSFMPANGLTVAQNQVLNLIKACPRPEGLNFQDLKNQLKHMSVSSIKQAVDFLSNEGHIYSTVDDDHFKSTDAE
Chain of RPA heterotrimer (RPA70/RPA32/RPA14) (Homo sapiens) (P35244 whole entry, chain 3 of 3): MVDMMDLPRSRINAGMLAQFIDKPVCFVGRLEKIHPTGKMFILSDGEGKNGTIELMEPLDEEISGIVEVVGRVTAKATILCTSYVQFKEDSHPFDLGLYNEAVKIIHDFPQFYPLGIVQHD

TTTTTTTTTTTTTTTTTTTTTTTTTTTTTTTTTTTTTTTTGGTCGGAGTTAGAGTAGGGTCGGAGTTAGAGTAGCCAGTA [S8 (80-mer)]
binding signal (fold vs RPA alone): 2
